Results on 31 sequences are retold here after the supplement of paper PMC9170038.

The test system of the data set is MS2 coat protein. Put plainly: apparent KD of MS2 coat protein; designed switch direction (-1 OFF switch, 1 ON switch): -1; higher = weaker reporter binding. The gist of the method: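 Transcription of designed RNA switches on Illumina chips was done by stalled E. coli RNA polymerase. SNAP-549-labelled MS2 coat protein was then titrated in doubling steps from 0.7 or 1.5 nM to 3 µM, with steps of 0.8–1.5 h at the lowest and 10–20 min at the highest concentration. The per-design median over clusters of curve-fitted normalised fluorescence is reported as apparent KD.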

Where [1] appears, read: Eterna round: R95, input ligand: FMN 200 uM.
[2] abbreviates: Eterna round: R95, input ligand: microRNA oligo, concentration not stated.
Where [3] appears, read: Eterna round: R95, input ligand: none.
Where [4] appears, read: input ligand: microRNA oligo, concentration not stated.

As to “CGUAAGCUAGGAUAUGCUUUGGGAAAGCAUUCCUUCGAUAAACUUGAGGAUCACCCAAGUAGAAGGAGCUUACA [salish99_ex2_r4_012] (Eterna round: R97, puzzle: Exclusion 2)”, the “apparent KD of MS2 coat protein” value is, setting by setting: (input ligand: FMN 200 uM) 0.0182 µM; (input ligand: none) 0.0123 µM.

“CGUACUAACACGAAAGUGUUAGUACAAUAAGCUUGUGAAACAUGAGGAUCACCCAUGUCCUCAUAAGCUCGUCUUAA [salish99_TOv2_r3_006] (puzzle: Sensor v3, turn-off variant 2)”: the “apparent KD of MS2 coat protein” value is, setting by setting: under setting [1], 0.0141 µM; under setting [2], 0.268 µM; under setting [3], 0.0121 µM.

For the sequence “CGUAGCAAAGUGAGGAUAUCUAGAGCCUCGGCUCUAGAGAAGGCACAUGAGGAUCACCCAUGUGAUUAGCUACG [BmEx4/9-A2] (Eterna round: R97, puzzle: Brourd's mod of Exclusion 4)”, the “apparent KD of MS2 coat protein” value (input ligand: FMN 200 uM) came to 0.173 µM and the “apparent KD of MS2 coat protein” value (input ligand: none) was 0.0241 µM.

In the case of “CGUAUCUUUCACGUGAGUAGUGGGUGCAACAGGUGGGUCACAUGAGGAUCACCCAUGUACUCACUUGCUCGUCUUAU [Grok-var2-07] (puzzle: Sensor v3, turn-off variant 2)”, the “apparent KD of MS2 coat protein” value reads like this: under setting [1], 0.024 µM; under setting [2], 0.014 µM; under setting [3], 0.0218 µM.

Take “CGUCCACUUGAGGAUCACCCAAGUUAGGAUAUCUCCCAGCUCGCAUGUGCGGUUGGUCAGAGAAGGAACCAGGG [Ravereed] (Eterna round: R97, puzzle: Exclusion 1)”: the “apparent KD of MS2 coat protein” value amounted to 0.0495 µM (input ligand: FMN 200 uM) and 0.029 µM (input ligand: none).

Regarding “CGUCGACAUGUAGGAUAUCUGCACGAUUAGUGCAGAGAAGGACAUGAGGAUCACCCAUGUAGAUCACGACGAAUUAAUUUAAUU [ENG1/6-C1] (Eterna round: R96, puzzle: Exclusion NG 1)”, the “apparent KD of MS2 coat protein” value runs as follows: (input ligand: FMN 200 uM) 0.476 µM; under setting [4], 0.298 µM; (input ligand: none) 0.527 µM.

On to “CGUCUGUAAGGAUAUGGUAGCAUUUACAUGAGGAUCACCCAUGUUACAUGGGACUAGUGAUUAGAAGGUACGAACG [EX5 #55] (Eterna round: R97, puzzle: Exclusion 5)”, for which the “apparent KD of MS2 coat protein” value runs as follows: (input ligand: FMN 200 uM) 0.276 µM; (input ligand: none) 0.322 µM.

For “CGUCUGUCAGGAUAUAGUUACAUAGACAUGAGGAUCACCCAUGUGACGUGGGACUAGUGACUAGAAGGGACGAACG [EX5 #71] (Eterna round: R97, puzzle: Exclusion 5)”, the “apparent KD of MS2 coat protein” value came out at 0.0587 µM (input ligand: FMN 200 uM) and 0.0288 µM (input ligand: none).

In the case of “CGUCUGUGAGGAUAUGGUAUCGUUUACAUGAGGAUCACCCAUGUUACAUGGGACUAGAGACUAGAAGGUACGGACG [EX5 #48] (Eterna round: R97, puzzle: Exclusion 5)”, the “apparent KD of MS2 coat protein” value runs as follows: (input ligand: FMN 200 uM) 0.461 µM; (input ligand: none) 0.391 µM.

As for “CGUGACUCAGGAUAUCGAUUAUAUCACAUGAGGAUCACCCAUGUCCAGCGAAAGCUGGAGUGAGAAGGGAGUCACG [Fiskers Ex 5 - 49] (puzzle: Exclusion 5)”, the “apparent KD of MS2 coat protein” value is, setting by setting: under setting [1], 0.0476 µM; under setting [2], 0.107 µM; under setting [3], 0.109 µM.

On to “CGUGCGUAUGUGAGGAUAUGCUGGUCCUUGGAUCAGCAGAAGGCACAUGAGGAUCACCCAUGUGGUGUCGUACG [salish99_Bmod_Ex4_018] (puzzle: Brourd's mod of Exclusion 4)”, for which the “apparent KD of MS2 coat protein” value was 0.0187 µM under setting [1], 0.182 µM under setting [2] and 0.395 µM under setting [3].

Consider “CGUGGACAUGAGGAUCACCCAUGUGAGGAUAUCGGCUGGUACGUGUUGGCUGGCAUCUCGAGAAGGCACAUAGU [Exclusion 1 V62] (puzzle: Exclusion 1)”, for which the “apparent KD of MS2 coat protein” value under setting [2] stood at 0.0408 µM.

Consider “CGUGGUAGGCAGGAUAUUUUAGACAAUUACUUGAAAGAAGGGCCUACAUGAGGAUCACCCAUGUGCUCUUCUUG [EX6 B.3] (Eterna round: R97, puzzle: Exclusion 6)”, for which the “apparent KD of MS2 coat protein” value was 0.0169 µM (input ligand: FMN 200 uM) and 0.0168 µM (input ligand: none).

With “CGUGUCUGAUAGGAUAUGACUGUUCAUAGAUGGUUAGAAGGAUCGACAUGAGGAUCACCCAUGUAGGGCUAGCG [Eternabot (L1) Solution 65] (Eterna round: R97, puzzle: Exclusion 6)”, the “apparent KD of MS2 coat protein” value reads like this: (input ligand: FMN 200 uM) 0.104 µM; (input ligand: none) 0.219 µM.

For “CUAAGUCGAGGAUAUGCAUGGUGACAUGAUGCCGAUGCACGACAUGAGGAUCACCCAUGUAGAAGGCGACUUAG [Eternabot (L2) Solution 50] (Eterna round: R97, puzzle: Exclusion 2)”, the “apparent KD of MS2 coat protein” value reads like this: (input ligand: FMN 200 uM) 0.00804 µM; (input ligand: none) 0.835 µM.

Turning to “CUAAUACAUCAGGAUAUGAUAGCUUAUAGCAUAUCAGAAGGGAUGACAUGAGGAUCACCCAUGUCAAAGGGUGA [eternacac ex6r4 sub18] (Eterna round: R97, puzzle: Exclusion 6)”, the “apparent KD of MS2 coat protein” value stood at 0.13 µM (input ligand: FMN 200 uM) and 0.59 µM (input ligand: none).

As to “CUACAUCGAGGAUAUGCAAACGUAAACAUGAGGAUCACCCAUGUGACGUCAUAUUACGUAGUAGAAGGCGAAAAUA [Anlein] (Eterna round: R97, puzzle: Exclusion 5)”, the “apparent KD of MS2 coat protein” value by setting is: (input ligand: FMN 200 uM) 0.0202 µM; (input ligand: none) 0.0158 µM.

On to “CUAGUCCGAGGAUAUAUUAAGUGAUACAUGAGGAUCACCCAUGUUAUUUAAUGGAUAUUAAUAGAAGGCGGACUAG [Mat - Exclusion 5 - JL mod - D78] (puzzle: Exclusion 5)”, for which the “apparent KD of MS2 coat protein” value is, setting by setting: under setting [1], 0.0426 µM; under setting [2], 0.0321 µM; under setting [3], 0.0313 µM.

Consider “CUAUGCAAAGUAAGGAUAUGCUUCCGGAAACGGAGGCAGAAGGUACAUGAGGAUCACCCAUGUUAAACGCAUAG [Explosion 4 - Jieux - Brourd's mod of Exclusion 4] (Eterna round: R97, puzzle: Brourd's mod of Exclusion 4)”, for which the “apparent KD of MS2 coat protein” value was determined as 0.0168 µM (input ligand: FMN 200 uM) and 0.0128 µM (input ligand: none).

For “CUAUUACGAGGAUAUGAUUUAAGUAACAUGAGGAUCACCCAUGUUUUUCCGUUGUUAUGUUCAGAAGGCGUAUUAU [JR_E5_Sub023] (puzzle: Exclusion 5)”, the “apparent KD of MS2 coat protein” value came to 0.0861 µM under setting [1], 0.0356 µM under setting [2] and 0.0388 µM under setting [3].

Regarding “CUAUUGGCAGGAUAUGCUUUUUUAGACAUGAGGAUCACCCAUGUGAUGAAUAUUGGGUUUGCAGAAGGGCCUGAAU [JR_E5_Sub039] (puzzle: Exclusion 5)”, the “apparent KD of MS2 coat protein” value under setting [2] turned out to be 0.0642 µM.

For the sequence “CUCAGACAUGAGGAUCACCCAUGUGAGGAUAUGAUGCAGCAGUGGUCUACGCUGUGCAUCAGAAGGCACAUGUG (puzzle: Exclusion 1)”, the “apparent KD of MS2 coat protein” value under setting [2] was found to be 0.033 µM.

With “CUCAUGCCUGAGGAUAUGCUGUACAAAAGUACUGCAGAAGGCGGGACAUGAGGAUCACCCAUGUGGCGAAAGCC [Omei Ex G8] (Eterna round: R97, puzzle: Exclusion 6)”, the “apparent KD of MS2 coat protein” value reads like this: (input ligand: FMN 200 uM) 0.0787 µM; (input ligand: none) 0.519 µM.

For the sequence “CUCCGACAUGAGGAUCACCCAUGUUAGGAUAUCCCACGCAGGUAGUGAGAGAAUCUGUGGAGAAGGAGCAGGGU [Eternabot (L2) Solution 74] (Eterna round: R97, puzzle: Exclusion 1)”, the “apparent KD of MS2 coat protein” value by setting is: (input ligand: FMN 200 uM) 0.0219 µM; (input ligand: none) 0.0245 µM.

Take “CUCCUCGUGGCGCCUAAACACAUGAGGAUCACCCAUGUACAGGCUUUUUGCCGUCUUAUAAUAAAACCGAGGAUACG [Cezabi] (puzzle: Sensor v3, turn-off variant 1)”: the “apparent KD of MS2 coat protein” value by setting is: under setting [1], 0.0191 µM; under setting [2], 0.0639 µM; under setting [3], 0.0212 µM.

For the sequence “CUCGAGUUAGGAUAUGGCGGCGACUGUGUUCGCAGAUCGCACCAGAAGGAACAUGAGGAUCACCCAUGUGACGG [Eternabot (L1) Solution 42] (Eterna round: R97, puzzle: Exclusion 4)”, the “apparent KD of MS2 coat protein” value (input ligand: FMN 200 uM) is 0.348 µM and the “apparent KD of MS2 coat protein” value (input ligand: none) turned out to be 0.0897 µM.

As for “CUCUCACAUGAGGAUCACCCAUGUCAGGAUAUCUCAGUGCAUCCACACGGACGCAUCAAGAGAAGGGACAAAAC [Vinxlusion 2 - Jieux - Exclusion 1] (Eterna round: R97, puzzle: Exclusion 1)”, the “apparent KD of MS2 coat protein” value turned out to be 0.095 µM (input ligand: FMN 200 uM) and 0.0591 µM (input ligand: none).

For the sequence “CUCUCGUGAGGAUAUCUCCGCGAGAAUAAUGUUACACGCGAAGAGAAGGCACAUGAGGAUCACCCAUGUUAAAC [Eternabot (L1) Solution 31] (Eterna round: R97, puzzle: Exclusion 4)”, the “apparent KD of MS2 coat protein” value (input ligand: FMN 200 uM) was determined as 0.23 µM and the “apparent KD of MS2 coat protein” value (input ligand: none) stood at 0.0548 µM.

In the case of “CUCUUGUCAGGAUAUCAACGCCAUCCACAUGGACGGCGAAAUGAGAAGGGACAUGAGGAUCACCCAUGUUAAAA [Xeveleqube] (puzzle: Exclusion 4)”, the “apparent KD of MS2 coat protein” value runs as follows: under setting [1], 0.0273 µM; under setting [2], 0.117 µM; under setting [3], 0.139 µM.

As for “CUCUUGUGAGGAUAUCAGGUGUGCUAGCGUACUGGUACAUCUGAGAAGGCACAUGAGGAUCACCCAUGUUUCAA [Mat - Exclusion 4 - Mod of JL - D41] (puzzle: Exclusion 4)”, the “apparent KD of MS2 coat protein” value under setting [2] amounted to 0.0525 µM.

Take “CUGAAAGACGAAGGAUAUCCAGGCACCGGAGUAGGAGAAGGUCGUCCGGGUGUCCUAGAACUUGAGGAUCACCCAAGUAGAAGA [Mutated MS2 EX1.5] (Eterna round: R96, puzzle: Exclusion NG 1)”: the “apparent KD of MS2 coat protein” value is, setting by setting: (input ligand: FMN 200 uM) 0.0344 µM; under setting [4], 0.0369 µM; (input ligand: none) 0.0247 µM.
